Measured values from article PMC3105396 (Nucleic Acids Research, 2011).

Biological target: POLRMT.STREP2 (POLRMT carrying a FLAG and a STREP2 binding group) (human, UniProt O00411 42-1230)
Test: pull-down

POLRMT.STREP2 (POLRMT carrying a FLAG and a STREP2 binding group), sequence (O00411 42-1230): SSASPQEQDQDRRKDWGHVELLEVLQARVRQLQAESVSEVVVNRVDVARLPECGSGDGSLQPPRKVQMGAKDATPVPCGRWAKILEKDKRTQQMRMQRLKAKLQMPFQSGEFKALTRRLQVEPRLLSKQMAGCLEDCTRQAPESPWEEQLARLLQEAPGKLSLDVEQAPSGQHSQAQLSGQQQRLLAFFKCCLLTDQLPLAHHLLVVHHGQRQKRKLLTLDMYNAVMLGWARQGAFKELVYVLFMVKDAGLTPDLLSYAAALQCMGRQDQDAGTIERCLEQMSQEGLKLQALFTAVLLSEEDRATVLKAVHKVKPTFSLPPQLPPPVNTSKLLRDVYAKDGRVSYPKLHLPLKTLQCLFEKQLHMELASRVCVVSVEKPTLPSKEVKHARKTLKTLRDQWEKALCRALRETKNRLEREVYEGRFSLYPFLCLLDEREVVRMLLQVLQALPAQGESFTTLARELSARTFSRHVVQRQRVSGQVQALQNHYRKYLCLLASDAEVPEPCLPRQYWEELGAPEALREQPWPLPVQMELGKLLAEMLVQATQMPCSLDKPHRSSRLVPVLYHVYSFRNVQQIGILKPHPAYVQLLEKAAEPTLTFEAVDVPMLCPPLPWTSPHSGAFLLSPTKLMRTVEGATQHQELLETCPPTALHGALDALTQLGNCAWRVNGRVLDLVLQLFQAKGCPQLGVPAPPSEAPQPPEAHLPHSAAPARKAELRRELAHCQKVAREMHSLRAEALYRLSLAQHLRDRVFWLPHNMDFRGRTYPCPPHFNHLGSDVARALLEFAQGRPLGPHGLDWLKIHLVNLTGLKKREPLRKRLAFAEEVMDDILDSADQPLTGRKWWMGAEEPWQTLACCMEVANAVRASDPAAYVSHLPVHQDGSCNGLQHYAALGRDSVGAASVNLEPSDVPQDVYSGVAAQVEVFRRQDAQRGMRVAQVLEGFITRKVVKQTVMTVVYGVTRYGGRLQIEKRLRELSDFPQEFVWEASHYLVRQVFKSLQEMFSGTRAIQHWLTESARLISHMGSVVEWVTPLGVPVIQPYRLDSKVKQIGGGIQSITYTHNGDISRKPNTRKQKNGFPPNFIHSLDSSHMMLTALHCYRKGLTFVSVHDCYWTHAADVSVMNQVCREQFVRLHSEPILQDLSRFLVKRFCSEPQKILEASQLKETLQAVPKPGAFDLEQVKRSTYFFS

B1: TEFM (transcription elongation factor of mitochondria), endogenous (natural protein, human (endogenous in HEK 293T), UniProt Q96QE5 36-360, looked up)
chain: KSTTPKKITPNVTFCDENAKEPENALDKLFSSEQQASILHVLNTASTKELEAFRLLRGRRSINIVEHRENFGPFQNLESLMNVPLFKYKSTVQVCNSILCPKTGREKRKSPENRFLRKLLKPDIERERLKAVNSIISIVFGTRRIAWAHLDRKLTVLDWQQSDRWSLMRGIYSSSVYLEEISSIISKMPKADFYVLEKTGLSIQNSSLFPILLHFHIMEAMLYALLNKTFAQDGQHQVLSMNRNAVGKHFELMIGDSRTSGKELVKQFLFDSILKADPRVFFPSDKIVHYRQMFLSTELQRVEELYDSLLQAIAFYELAVFDSQP
amount in the POLRMT.STREP2 peak elution fractions relative to TFAM: 2 fold | amount in the POLRMT.STREP2 peak elution fractions relative to TFB2M: 5 fold
